B1: library; numbered along this chain (parent)
chain: MRKPRAAVGSGHRKQAASQEGRQKHAKNNSQAKPSACDGLARQPEEVVLQASVSSYHLFRDVAEVTAFRGSLLSWYDQEKRDLPWRRRAEDEMDLDRRAYAVWVSEVMLQQTQVATVINYYTGWMQKWPTLQDLASASLEEVNQLWAGLGYYSRGRRLQEGARKVVEELGGHMPRTAETLQQLLPGVGRYTAGAIASIAFGQATGVVDGNVARVLCRVRAIGADPSSTLVSQQLWGLAQQLVDPARPGDFNQAAMELGATVCTPQRPLCSQCPVESLCRARQRVEQEQLLASGSLSGSPDVEECAPNTGQCHLCLPPSEPWDQTLGVVNFPRKASRKPPREESSATCVLEQPGALGAQILLVQRPNSGLLAGLWEFPSVTWEPSEQLQRKALLQELQRWAGPLPATHLRHLGEVVHTFSHIKLTYQVYGLALEGQTPVTTVPPGARWLTQEEFHTAAVSTAMKKVFRVYQGQQPGTCMGSKRSQVSSPCSRKKPRMGQQVLDNFFRSHISTDAHSLNSAAQ

Variants of: B1
Experiment: 8OG:A repair function score (normalized; synonymous = 0, nonsense = -1) (normalized log-likelihood score); higher = more repair activity (WT-like)
Conditions: with 8OG:A DNA repair reporter (GFP) in HEK-293 MUTYH KO cells
Outline: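 Per-tile Rosace fitness scores were converted to a normalized repair function score anchored on synonymous and nonsense distributions. That scale puts synonymous medians at 0 and nonsense medians at -1. Variants with starting counts under 300 counts per million were discarded. Input came from sorting viable mCherry+ MUTYH knockout HEK-293 cells, carrying lentiviral MUTYH cDNA NNN codon-scan libraries in 10 pg/ml doxycycline and an 8OG:A GFP repair reporter, into GFP+ and GFP− bins at 72 h, three replicates per tile, followed by tile amplicon sequencing.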
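Note: cells sorted at 72 h after reporter transfection.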

Variant	8OG:A repair function score
G471D	0.0172
P352T	0.0253
S54M	-0.0179
L145Q	0.154
E382W	0.0332
A203Y	-0.245
T424C	-0.0623
G171H	-0.42
W399F	-0.284
V427H	-1.08
L149E	-1.24
E452F	-0.387
E106R	-1.42
T436H	0.323
Q252V	-0.798
L370Y	-0.258
T228W	-0.106
M255W	-1.04
G429R	-0.355
A405V	-0.00982
L403G	-0.509
Y469R	-0.195
S294D	-0.0514
T476Y	-0.0187

Variant	8OG:A repair function score
G401V	-0.142
P267D	-1.1
I221T	-0.889
R217E	-1.03
R86N	-1.17
Q363C	-0.306
A457R	-0.672
H172A	-0.0729
S343Q	-0.144
G309Y	-0.0852
P365C	0.0287
R482V	0.00231
D91L	0.00629
G429H	-0.299
S335V	-0.0166
P225Y	0.0138
V114N	-0.367
L325I	-0.054
G209A	-0.0943
T179M	0.0538
Q499C	0.00111
L448Q	-0.202
S507V	-0.000918
A177M	-0.0819

Variant	8OG:A repair function score
Q426V	-0.068
S487G	-0.00491
L392H	-0.963
H514P	-0.00868
V48S	-0.0148
P494I	0.0172
T204A	-0.0766
Q240Y	-0.969
L184M	-0.281
V438W	-0.131
Q159P	-0.377
P331K	-0.332
Q111Y	-1.17
P244S	-0.232
L295I	0.00398
C477G	-0.00235
H514Q	0.00808
A431P	-0.0943
P225K	-0.284
G353L	-0.135
V211N	-0.806
R42W	0.0271
R81L	-0.31
V207W	-0.834

Variant	8OG:A repair function score
T439S	-0.0274
C272A	-1.16
G123V	0.0959
G123N	-0.0109
L184W	-1.13
E287R	-0.0601
Q159H	0.0232
Q144F	-0.198
L411W	-0.28
E92W	-0.152
A519L	-0.012
L169H	-0.0549
D77E	-0.0615
P437M	-0.528
R332Y	-0.166
S105Q	-0.69
A36P	0.00994
M173E	-1.13
A203L	-0.0917
G236L	-0.0738
S343G	-0.00518
G444L	-0.255
V166F	-0.0998
R213Q	-1.02

Variant	8OG:A repair function score
H57T	-0.765
D512I	-0.0146
L72Y	-1.03
R495W	0.0272
S292L	-0.0154
Q426K	0.106
H407V	0.0608
G205Q	-0.764
R42M	-0.196
A371F	-0.605
A334G	-0.0343
R482W	0.0248
L315F	-0.147
T449R	0.00957
R364D	-0.614
K463Q	-0.183
L408Y	-0.205
Y151V	-0.583
V165N	-1.08
L393Q	0.0615
G209C	0.162
F418R	-0.722
Q126C	-0.239
A192G	-0.105

Variant	8OG:A repair function score
E382F	0.0805
S459C	-0.291
L432M	-0.284
A456V	-0.16
S384M	-0.315
T460F	-0.157
P365N	0.119
Y100C	-1.66
H454V	-0.00673
Q126P	-0.376
G205E	-0.592
R281F	-0.126
R279K	-0.0521
S197H	-1.22
E433V	-0.164
C311D	-0.559
C311K	-0.39
R389V	0.273
E341T	0.0246
K422H	-0.22
P84K	-0.876
M108V	-1.11
A212W	-0.596
L411Y	0.251

Variant	8OG:A repair function score
M125T	-0.339
K390G	-0.0253
R154K	-0.609
H508C	-0.0231
F504V	-0.00446
S292I	0.000296
L432F	-0.116
Q521N	0.00751
G248D	-0.876
Q202E	-0.0729
Q435F	-0.052
A238G	-0.603
V165D	-0.91
L289E	-0.00394
K492T	-0.00293
T130Q	-0.123
R60P	-0.0757
Q111N	-0.242
V206H	-1.02
P339G	-0.00599
G205K	-0.961
M173G	-0.965
L149I	-0.462
W399S	-0.232

Variant	8OG:A repair function score
A305K	-0.0297
C262Y	-1.21
W321A	-0.265
L369P	0.0626
S227E	-0.452
V166G	-0.466
S197E	-0.903
A461L	-0.0454
A305N	0.00434
Q499F	-0.00963
S227C	-0.0498
L360F	-0.195
G471P	-0.0663
K390P	-0.262
T406L	-0.249
T406C	0.13
C278M	-1.52
Q233V	0.335
V485G	-0.0147
A41V	-0.0754
A457T	-0.533
I195H	-1.14
V327K	-0.459
H312C	-0.0404

Variant	8OG:A repair function score
L289F	-0.00169
G429Y	-0.0542
V242P	-0.961
V62A	-0.00201
Y56A	-0.0245
R217D	-1.02
C489N	0.0265
L40Q	0.0733
E303L	-0.0849
K463I	-0.089
V214R	-1.01
M496F	0.0105
V441R	-0.293
P331A	-0.0508
A280R	-0.814
Y56R	-0.0483
V114G	-0.449
V468I	-0.0279
L325G	-0.16
W75K	-1.2
Q351L	-0.0629
H410A	-0.29
L361S	-0.625
V211P	-1.02

Variant	8OG:A repair function score
P494F	-0.0209
G155H	-0.388
E433T	-0.00904
L72G	-1.17
G444Y	-0.204
E342V	-0.0483
L40N	0.042
T455F	-0.273
E46H	-0.0875
A101Y	-0.0479
Q450H	0.0291
C278W	-1.05
V48M	-0.0648
R213C	-1.03
A196V	-0.382
E79T	0.00587
M108D	-0.793
K481A	-0.00494
P247Q	-0.968
A41R	0.0859
R409F	-0.167
A89F	-0.0315
K493L	-0.025
W75M	-1.05

Variant	8OG:A repair function score
R495Q	-0.0181
V166R	-0.182
A212V	-0.0975
H514E	-0.0112
Q286F	-0.00865
P185I	-0.275
L73A	-0.307
H508Y	0.0034
T440W	-0.105
E285H	-0.0454
P488Q	-0.00562
V53L	-0.024
D224K	-0.928
Q132D	0.0351
S52Q	-0.0208
G70E	-0.0876
Q358I	-0.163
C272Q	-1.09
W381Q	0.126
R482D	-0.000963
E375A	-0.313
P331I	-0.596
L408G	-0.81
S231L	-0.0707

Variant	8OG:A repair function score
W75Y	-0.448
L40T	0.087
P306T	-0.00972
D61T	0.00691
W381Y	-0.0016
G70L	-0.0189
P299G	-0.0369
G368Q	-0.304
T176F	-0.157
P84N	-0.796
R336L	-0.22
N366R	-0.0785
E413S	0.169
E79V	-0.000865
I118V	0.00363
L360V	-0.666
C304Q	-0.421
R266W	-0.135
E90F	-0.0713
T511Y	0.0102
T439C	-0.19
W75S	-1.58
G150H	-1.12
T122D	0.0468

Variant	8OG:A repair function score
S378F	-0.0771
Q472N	0.0284
A220M	-0.551
G412S	-0.26
P474I	-0.014
L423N	-0.091
K492H	-0.0225
F59R	-0.753
P488R	0.0168
T511K	-0.00393
A135M	-0.467
S515A	-0.018
C216H	-0.687
V427T	-0.409
L392G	-0.896
G209N	0.0546
A63D	0.00576
R217T	-1.02
A431Q	-0.242
F453M	-0.51
A67V	-0.000602
G475L	0.0136
Q265P	-0.252
A238R	-1.01

Variant	8OG:A repair function score
E160N	-0.0629
Y152Q	-0.592
R340Y	-0.205
S419F	-0.753
D91R	0.00216
Q240S	-0.945
F504G	-0.0353
S105E	-0.676
L325D	-0.204
R389C	-0.13
L180A	-0.223
N329H	-0.276
A253E	-1.02
R98K	-0.0169
Q113Y	0.0661
E287Y	-0.00218
G368Y	-0.663
Y152D	-1.08
A291C	-0.0481
S105Y	-1.24
E375M	-0.229
P474Q	0.0183
